Experimental data from patent publication US20260049134A1 (UNIVERSITY OF FLORIDA RESEARCH FOUNDATION, published 2026).

T1: ANXA1
T1 construct: coated protein in the ELISA; also called ANXA1-His (R&D Systems)
T1 chain: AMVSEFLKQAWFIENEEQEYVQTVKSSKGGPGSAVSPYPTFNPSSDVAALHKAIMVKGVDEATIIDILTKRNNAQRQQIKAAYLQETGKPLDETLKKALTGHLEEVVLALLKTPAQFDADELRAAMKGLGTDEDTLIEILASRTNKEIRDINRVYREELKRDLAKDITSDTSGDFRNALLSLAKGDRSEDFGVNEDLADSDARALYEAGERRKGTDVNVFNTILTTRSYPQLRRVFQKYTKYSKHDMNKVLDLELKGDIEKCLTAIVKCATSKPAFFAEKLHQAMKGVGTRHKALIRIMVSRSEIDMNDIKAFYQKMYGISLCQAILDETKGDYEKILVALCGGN

T2: IGSF11 (VSIG3)
T2 construct: coated protein in the ELISA; also called IGSF11-Fc (R&D Systems)
T2 chain: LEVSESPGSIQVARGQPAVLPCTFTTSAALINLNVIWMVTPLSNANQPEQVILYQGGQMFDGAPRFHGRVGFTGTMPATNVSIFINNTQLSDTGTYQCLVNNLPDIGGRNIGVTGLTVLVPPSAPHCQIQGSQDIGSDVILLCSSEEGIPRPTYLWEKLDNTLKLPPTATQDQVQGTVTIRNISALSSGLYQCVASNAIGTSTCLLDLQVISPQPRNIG

T3: DCC
T3 construct: coated protein in the ELISA; also called DCC-His (R&D Systems)
T3 chain: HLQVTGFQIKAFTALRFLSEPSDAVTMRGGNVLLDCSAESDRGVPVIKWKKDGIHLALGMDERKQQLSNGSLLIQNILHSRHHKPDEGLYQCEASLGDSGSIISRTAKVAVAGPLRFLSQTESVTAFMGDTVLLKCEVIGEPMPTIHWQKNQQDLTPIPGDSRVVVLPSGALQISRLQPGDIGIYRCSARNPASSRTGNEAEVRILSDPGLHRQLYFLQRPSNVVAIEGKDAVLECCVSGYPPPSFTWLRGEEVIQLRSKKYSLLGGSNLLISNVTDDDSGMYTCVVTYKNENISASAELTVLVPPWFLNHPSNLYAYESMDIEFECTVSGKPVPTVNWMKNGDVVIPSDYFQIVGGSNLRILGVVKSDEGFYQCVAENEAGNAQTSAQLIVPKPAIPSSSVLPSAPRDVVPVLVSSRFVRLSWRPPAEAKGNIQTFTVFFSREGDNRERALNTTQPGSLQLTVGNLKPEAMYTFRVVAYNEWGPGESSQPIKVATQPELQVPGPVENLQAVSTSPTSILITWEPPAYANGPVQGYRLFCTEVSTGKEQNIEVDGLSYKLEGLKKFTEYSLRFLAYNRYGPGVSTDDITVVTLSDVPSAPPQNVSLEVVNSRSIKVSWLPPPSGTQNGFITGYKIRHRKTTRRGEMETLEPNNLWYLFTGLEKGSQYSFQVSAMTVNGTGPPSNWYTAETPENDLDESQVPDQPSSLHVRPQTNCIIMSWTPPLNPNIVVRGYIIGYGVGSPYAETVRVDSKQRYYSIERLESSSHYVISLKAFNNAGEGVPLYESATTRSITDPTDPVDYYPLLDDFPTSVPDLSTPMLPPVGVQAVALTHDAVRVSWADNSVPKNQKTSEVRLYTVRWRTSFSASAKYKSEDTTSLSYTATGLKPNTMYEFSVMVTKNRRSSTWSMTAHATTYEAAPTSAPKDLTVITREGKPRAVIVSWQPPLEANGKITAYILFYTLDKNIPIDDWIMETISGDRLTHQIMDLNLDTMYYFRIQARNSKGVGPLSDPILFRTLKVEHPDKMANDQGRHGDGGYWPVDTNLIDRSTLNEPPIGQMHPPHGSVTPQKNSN

T4: SELL (L-Selectin)
T4 construct: coated protein in the ELISA; also called SELL-Fc-His (R&D Systems)
T4 chain: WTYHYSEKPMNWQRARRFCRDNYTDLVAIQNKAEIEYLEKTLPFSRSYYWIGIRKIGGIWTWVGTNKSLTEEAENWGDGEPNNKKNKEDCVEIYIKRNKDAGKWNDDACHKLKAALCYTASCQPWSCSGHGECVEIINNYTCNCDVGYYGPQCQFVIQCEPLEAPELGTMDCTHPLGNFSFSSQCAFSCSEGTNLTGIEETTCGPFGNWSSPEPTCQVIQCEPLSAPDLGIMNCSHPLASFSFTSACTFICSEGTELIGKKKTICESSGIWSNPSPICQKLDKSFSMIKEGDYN


Assays:
ANXA1 [1] = biological target: T1, ANXA1; assay: ELISA on coated ANXA1-His
Method: (§1) Recombinant purified ECDs (50-150 ng) of each putative target protein were coated, incubated with 150 ng of the indicated primary antibody, and binding was detected using a peroxidase-conjugated anti-human Fab secondary antibody. Heatmap represents averages of technical triplicates. (8B) Target validation via siRNA knockdown. H929 cells were transfected with siRNA pools targeting the putative antibody targets ICAM1, CADM1, and PTPRG. Cells were then subjected to cognate IgG binding analysis via flow cytometry. (NT, non-targeting siRNA).
(§2) ELISA ELISA was conducted as described previously. Briefly, 50-150 ng of antigen was coated overnight in half-area 96-well plates at 4° C., blocked with 3% BSA at 37° C. for 1 h, and 150 ng of chimeric rabbit/human IgG1 was added, incubating for 2 h at 37° C. […] After incubating at 37° C. for 15 min-1 h (depending on intensity of controls), data were acquired using a SpectraMax M5 plate reader (Molecular Devices).

IGSF11 (VSIG3) = biological target: T2, IGSF11 (VSIG3); assay: ELISA on coated IGSF11-Fc
Method: as §1, §2

DCC = biological target: T3, DCC; assay: ELISA on coated DCC-His, 150 ng IgG1; None 0.095
Method: as §1, §2

ICAM1-Fc (R&D Systems) = biological target: T5, ICAM1-Fc (R&D Systems) (human, UniProt P05362 28-480); assay: ELISA on coated ICAM1-Fc, 150 ng IgG1; None 0.060
T5 construct: Bought; also called ICAM-1/CD54; not shown: Fc of the bought fusion protein
Method: as §1, §2

ANXA1 [2] = biological target: T1, ANXA1; assay: ELISA on coated ANXA1-His, 150 ng IgG1; None 0.098
Method: as §1, §2

SELL (L-Selectin) = biological target: T4, SELL (L-Selectin); assay: ELISA on coated SELL-Fc-His, 150 ng IgG1; None 0.096
Method: as §1, §2

T5 sequence (P05362 28-480): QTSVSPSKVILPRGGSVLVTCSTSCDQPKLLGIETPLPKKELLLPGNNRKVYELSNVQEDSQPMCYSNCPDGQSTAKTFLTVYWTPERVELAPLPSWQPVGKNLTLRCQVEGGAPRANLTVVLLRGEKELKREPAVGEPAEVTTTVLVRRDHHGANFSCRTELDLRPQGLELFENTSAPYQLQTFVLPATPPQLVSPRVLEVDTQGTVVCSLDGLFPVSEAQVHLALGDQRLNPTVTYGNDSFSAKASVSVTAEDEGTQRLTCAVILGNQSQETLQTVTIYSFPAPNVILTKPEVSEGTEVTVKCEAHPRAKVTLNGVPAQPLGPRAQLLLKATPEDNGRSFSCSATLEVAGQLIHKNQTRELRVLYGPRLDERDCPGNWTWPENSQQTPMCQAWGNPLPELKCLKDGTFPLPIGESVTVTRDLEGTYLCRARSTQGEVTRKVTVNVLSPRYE

Binder | binding result (ANXA1 [1]) | binding result (IGSF11 (VSIG3)) | ELISA Absorbance (405 nm-570 nm) (DCC) | ELISA Absorbance (405 nm-570 nm) (ICAM1-Fc (R&D Systems)) | ELISA Absorbance (405 nm-570 nm) (ANXA1 [2]) | ELISA Absorbance (405 nm-570 nm) (SELL (L-Selectin))
HW-42 chimeric rabbit-human IgG1 LA/LA/PG (antibody, V domains shown, Fc-silenced (L234A/L235A/P329G) IgG1, lambda; Alexa Fluor 647-labeled in single-step flow cytometry; Cluster C-1) VH: QSVKESEGGLFKPADTLTLTCTVSGFSLSSNEISWVRQAPGEGLEYIGIIDTGGRAYYAVWARSRSTITRNTNLNTVTLKMTSLTAADTATYFCARGGVDTEWYAFSSWGPGTLVTVPS VL: SFVLTQPASVQVNLGQTVSLTCTADTLSRRYASWYQQKPGQAPVLLIFRDTSRPSGVPDRFSGSSSGDTATLTISGAQAGDEADYYCATSDGSGSNYQYVFGGGTQLTVTG | no binding (tested: 150 ng IgG1 per well) | no binding (tested: 150 ng IgG1 per well) | 0.098 | 0.082 | 0.103 | 0.103
HW-70 chimeric rabbit-human IgG1 LA/LA/PG (antibody, V domains shown, Fc-silenced (L234A/L235A/P329G) IgG1, lambda; Alexa Fluor 647-labeled in single-step flow cytometry; Cluster C-1) VH: QSLEESGGRLVTPGTPLTLTCTVSGFSLSSNAMSWVRQAPGKGLEWIGTIDGYGYTYYASWAKGRFTVSKTSTTVDLKITSPTTEDTATYFCAREIYLGSNFWGPGTLVTISS VL: SFVLTQPASVQVNLGQTVSLTCTADTLSRRYASWYQQKPGQAPVLLIYRDTSRPSGVPDRFSGSSSGNTATLTISGAQAGDEADYYCATADGSGSSYQFVFGGGTQLTVTG | no binding (tested: 150 ng IgG1 per well) | no binding (tested: 150 ng IgG1 per well) | 0.086 | 0.064 | 0.102 | 0.09
HW-28 chimeric rabbit-human IgG1 LA/LA/PG (antibody, V domains shown, Fc-silenced (L234A/L235A/P329G) IgG1, lambda; Alexa Fluor 647-labeled in single-step flow cytometry; Cluster C-45) VH: QKQLVESGGRLVTPGTPLTLTCTASGFSLSSNAMSWVRQAPGEGLQWIGTISSGGSTYYASWAKGRFTISKTSTTVTLKMTSLTTEDTATYFCARGADLHRLWGPGTLVTVSS VL: SFVLTQPASVQVNLGQTVSLTCTGKPLSRSFASWYQQKPGQAPVLVIYRDTSRPSGVPDRFSGSSSGNTATLTISGAQAGDEADYYCATSDGSGSSYQYVFGGGTQLTVTG |  |  | 0.128 | 0.085 | 0.153 | 
HW-1 chimeric rabbit-human IgG1 LA/LA/PG (antibody, V domains shown, Fc-silenced (L234A/L235A/P329G) IgG1, lambda; Alexa Fluor 647-labeled in single-step flow cytometry; Prototype of cluster C-1) VH: QSLEESGGGLFKPTDTLTLTCTASGFSLGSSYAISWVRQAPGKELEWIGTIDSGRAYYARWAKSRSTITRNTNENTVTLKMTSLTAADTATYFCARDLIPTYSQDIWGPGTLVTISS VL: SFVLTQPASVQVNLGQTVSLTCTADTLSRRYASWYQQKPGQAPVLLIYRDTSRPSGVPDRFSGSSSGNTATLTISGAQAGDEADYYCATSDGSGNSYQYVFGGGTQLTVTS | no binding (tested: 150 ng IgG1 per well) | no binding (tested: 150 ng IgG1 per well) | 0.068 | 0.065 | 0.085 | 0.078
HW-25 chimeric rabbit-human IgG1 LA/LA/PG (antibody, V domains shown, Fc-silenced (L234A/L235A/P329G) IgG1, lambda; Alexa Fluor 647-labeled in single-step flow cytometry; Cluster C-1) VH: QSLEESGGRLVTPGTPLTLTCTVSGFSLSSYAMGWVRQAPGKGLEWIGIIDSRGSTYYATWAKGRFTISKTSTTVDLKITSPTTEDTATYFCAREDSYYYDSFNLWGPGTLVTVSS VL: SFVLTQPASVQVNLGQTVSLTCTADTLSRRYASWYQQKPGQAPVLLIYRDTSRPSGVPDRFSGSSSGNTATLTISGAQAGDEADYYCATSDGSGSSYQCVFGGGTQLTVTG | no binding (tested: 150 ng IgG1 per well) | no binding (tested: 150 ng IgG1 per well) | 0.063 | 0.054 | 0.065 | 0.067
TH9-0022 (antibody, human IgG1, kappa, L234A L235A, V domains shown, also called TH9-022; negative control) VH: QSLEESGGRLVTPGTPLTLTCTVSGFSLSSYAMNWVRQAPGKGLEWIGIINSYGSTYYASWAKGRFTISKTSTTVDLKITSPTTEDTATYFCARVTYDSYGYGYAPYGMDLWGPGTLVTVSS VL: LVMTQTPSSTSNAVGGTVTIKCQASQSIGNVLAWYQQKPGQPPKLLIYAASTLASGVPSRVGGSRSGTEYTLTISGVQREDAATYYCLGSDSDSDIAFGGGTELEILR | no binding (tested: 150 ng IgG1 per well) | no binding (tested: 150 ng IgG1 per well) | 0.079 | 0.077 | 0.09 | 0.081
